# What was measured:
# [1] = target: peptidase domain (PD) of Pitta sordida ACE2 (Pitta sordida); assay: BLI
# [2] = target: peptidase domain (PD) of Pipistrellus abramus angiotensin-converting enzyme 2 (ACE2) (Pipistrellus abramus) (UniProt C7ECT9); assay: BLI
substance,measurement,setting,value
RBD of BtPa-BetaCoV/GD2013 (GenBank accession: AIA62343.1) (domain or fragment),Kd,[1],138 nM
same,Kd,[2],23.4 nM
